This note sets out measurements from article PMC3660137.

Substrate in this data set: CCCCCC(O)/C=C/C=O
Put plainly: LC/MS of GSHNE conjugate, initial rate. The conditions noted are these: 1 mM GSH, 30 °C, 10–150 μM HNE. It counts as biochemical, Oncorhynchus kisutch.

B1: OlfGST pi; OkGST pi; GST pi (Oncorhynchus kisutch) (protein)
chain: MGPYTITYFGVRGRCGAMRIMMADQGQEWKEILMDFADWTKGDLKASCVFGQLPKFEDGGLVLYQSNAILRHLGRNHDAYGKDGKEAARIDMMCDGVEDLRLKYGKMIYQEYDTGKDQYIKDLPNHLDKFEAVMAKNKTGFLVGDKPSFADYSLFEVLLNHLVLCSSCLDTSPSLKSFVEKMSARPKIKAFLGSDAYKKLPINGNGKQ
Regarding B1, the Km came out at 160 ± 60 µM, the Vmax turned out to be 0.5 µmol/min/mg, the kcat came out at 0.37 ± 0.09 s⁻¹ and the kcat/Km was determined as 2300 ± 1100 M⁻¹ s⁻¹.
